This note sets out measurements from the DeepSol protein solubility set.

The nature of the series: soluble on expression in E. coli; label from the status in PepcDB or PDB records.
Regarding “MSLEDYSVVNRFESHGGGWGYSAHSVEAIRFSADTDILLGGLGLFGGRGEYTAKIKLFELGPDGGDHETDGDLLAETDVLAYDCAAREKYAMMFDEPVLLQAGWWYVAWARVSGPSSDCGSHGQASITTDDGVIFQFKSSKKSNNGTDVNAGQIPQLLYRLPTSDGSTSKGKQQTSEPVHILKRSFARTVSVECFESLLSILHWSWTTLVLGVEELRGLKGFQFTATLLDLERLRFVGTCCLRLLRVYTCEIYPVSATGKAVVEETSKLAECIGKTRTLLRKILSEGVDHCMVKLDNDPQGYLSQPLRLLEAVLQECHNTFTACFHSFYPTPALQWACLCDLLNCLDQEANFKTSSSRLLAAVMSALCHTSVKLTSLFPIAYDGEVLLRSIVKQVSTENDSTLVHRFPLLVGHMEKLSQSEENISGMTSFREVLEKMLVIVVLPVRNSLRRESELFSSHLVSNTCGLLASIVSELTASALGSEVDGLNSLHSVKASANRFTKTSQGRSWNTGNGSPDAICFAVDKPGIVVVGFAVYGGGGIHEYELEVLVDDSEHAGDSTHSHRWTSLELVKGTYTTDDSPSDIAEIRLDKVVPLKENVKYAVRLRNYGSRTANGDGGMTTVQCPDGVTFTFSTCSLSSNGTNQTRGQIPQILYYRSEEGHHHHHH”, the “soluble on expression in E. coli” value is given as “not soluble”. For “MSLTSFSRLNTNLLQLKSKHSSDNAQHLYVNGNVGSSTEEITSVEYSKLLQLKLIDESLSFQWCNNYTVLSIYSMKETFARKTIYIHFPKPLLNKWFTAVVYESSETTSNLCFDVILKDGIFINLSLPIDFILSRTRQNEYPENWLKVLNPYDFSVRPPQCLFHVDNTFSVVFLKDGGLLGLKRIPLEILNDFELQPVLFNDSSYFQSFTRMFSKYDNHNSAVVSAELLNDKYLVTLTNDATIKIWDLTTYQLNAHFDLKEKNQQVNYGAAGKYMIICGSLLFVYLPAGNGSFQVIQLENTHSSRISFKPLNVNIPLNLSSYSIWSLIDIQLVKSSIVKQSGLNLVLLWKSNTVTKLQLLSFEDSLYSSYKWIDGNSTYLSDLLDDSDLITNGNMEKALLNLKSHYSQSTYDDAQKILNKNNVMVQINDPHNQDYLNNLEALLKELHKQYQEPSTLTILDDEIIVVNSLHMYHHSTYKLDSQLETIFFNIFERKEPSSQLELFLNILHGFSTTITSETLNKISEKFLDMVNGSINPSLSLKNKITIVFQDCLTNGFQSANLSKLLENLNSIDVVEVLSEFIHCDLKVGAFSVIDLLDTDIFLSVLSMESLKQTLSIMDKFIIDILLVFTIVDINYEVFAEKLSKLITLHFNISLWLQVYQIDKLLAISETFGHVTKYNYGAQLKSYSDITDFTTLMVGFVKNSEGHHHHHH” the value was “not soluble”; for “MNNEPLRPDPDRLLEQTAAPHRGKLKVFFGACAGVGKTWAMLAEAQRLRAQGLDIVVGVVETHGRKDTAAMLEGLAVLPLKRQAYRGRHISEFDLDAALARRPALILMDELAHSNAPGSRHPKRWQDIEELLEAGIDVFTTVNVQHLESLNDVVSGVTGIQVRETVPDPFFDAADDVVLVDLPPDDLRQRLKEGKVYIAGQAERAIEHFFRKGNLIALRELALRRTADRVDEQMRAWRGHPGEEKVWHTRDAILLCIGHNTGSEKLVRAAARLASRLGSVWHAVYVETPALHRLPEKKRRAILSALRLAQELGAETATLSDPAEEKAVVRYAREHNLGKIILGRPASRRWWRRETFADRLARIAPDLDQVLVALDEPPAR”, “soluble”; for “VQFQEYVFLQFLGLDKAPSPQKFQPVPYILKKIFQDREAAATTGVSRDLCYVKELGVRGNVLRFLPDQGFFLYPKKISQASSCLQKLLYFNLSAIKEREQLTLAQLGLDLGPNSYYNLGPELELALFLVQEPHVWGQTTPKPGKMFVLRSVPWPQGAVHFNLLDVAKDWNDNPRKNFGLFLEILVKEDRDSGVNFQPEDTCARLRCSLHASLLVVTLNPDQCHPSRKRRAAIPVPKLSCKNLCHRHQLFINFRDLGWHKWIIAPKGFMANYCHGECPFSLTISLNSSNYAFMQALMHAVDPEIPQAVCIPTKLSPISMLYQDNNDNVILRHYEDMVVDECGCG”, “soluble”. On to “VKILVDENMPYARDLFSRLGEVTAVPGRPIPVAQLADADALMVRSVTKVNESLLAGKPIKFVGTATAGTDHVDEAWLKQAGIGFSAAPGCNAIAVVEYVFSSLLMLAERDGFSLYDRTVGIVGVGNVGRRLQARLEALGIKTLLCDPPRADRGDEGDFRSLDELVQRADILTFHTPLFKDGPYKTLHLADEKLIRSLKPGAILINACRGAVVDNTALLTCLNEGQKLSVVLDVWEGEPELNVELLKKVDIGTSHIAGYTLEGKARGTTQVFEAYSKFIGHEQHVALDTLLPAPEFGRITLHGPLDQPTLKRLVHLVYDVRRDDAPLRKVAGIPGEFDKLRKNYLERREWSSLYVICDDASAASLLCKLGFNAVHHPAR”, for which the “soluble on expression in E. coli” value is reported as “soluble”. The value for “MIDTLKNIKVKDVMTKNVITAKRHEGVVEAFEKMLKYKISSLPVIDDENKVIGIVTTTDIGYNLIRDKYTLETTIGDVMTKDVITIHEDASILEAIKKMDISGKKEEIINQLPVVDKNNKLVGIISDGDIIRTISKII” was “soluble”.

Turning to “MSLKIVIIGASFAGISAAIASRKKYPQAEISLIDKQATVGYLSGGLSAYFNHTINELHEARYITEEELRRQKIQLLLNREVVAMDVENQLIAWTRKEEQQWYSYDKLILATGASQFSTQIRGSQTEKLLKYKFLSGALAAVPLLENSQTVAVIGAGPIGMEAIDFLVKMKKTVHVFESLENLLPKYFDKEMVAEVQKSLEKQAVIFHFEETVLGIEETANGIVLETSEQEISCDSGIFALNLHPQLAYLDKKIQRNLDQTIAVDAYLQTSVPNVFAIGDCISVMNEPVAETFYAPLVNNAVRTGLVVANNLEEKTHRFIGSLRTMGTKVGDYYLASTGLTETEGLFFPQTLASIIVRQPAPPLQHGTEILGKLIYDKVTQRVLGAQLCSKNNCLEKINTLALSIQTGQTLTDLLQKDYFYQPSLTNIYDITNLMGASAYWRENDEGHHHHHH”, the “soluble on expression in E. coli” value is recorded as “soluble”. For “MGSDKIHHHHHHMNFNSDLLNLNSKSPAFSITIEGKDVTTVMDARLMSLTLTDNRGFEADQLDLELDDADGQIVLPRRGAVIHLALGWKGQPLFPKGAFTVDEIEHSGAPDRLTIRARSADFRETLNTRREKSWHQTTVGEVVKEIAARHNLKVALGQDLTDKALDHMDQTNESDASFLMKLARQYGAIASVKDGNLLFIRQGQGRTASGKPLPVITITRKAGDGHRFTLADRGAYTGVIASWLHTREPRKKETTSVKRRRKKATTPKEPEAKQGDYLVGTDENVLVLNRTYANRSNAERAAKMQWERLQRGVASFSLQLAEGRADLYTEMPVKVTGFKQPIDDAEWTITTLTHSVSPDNGFTTSMELEVKIDDLEIE” the value was “not soluble”; for “MSNTKNTSDSQESQQSSRKPQRSQATQTSQASQKSQSSQEPRRPKPMEVLREARAQLAELTGMTAESVSSFEQTEEGWVLEVEVLELERVPDTMSLMASYQVELDAEGQLTGYRRARRYERGRADSRGGRKLAAALEHHHHHH”, “soluble”. For the sequence “MGHHHHHHSHMDADSASQRLVISAPDSQVRFSNIRTNDVAKTPQMHGTEMANSPQPPPLSPHPCDVVDEGVTKTPSTPQSQHFYQMPTPDPLVPSKPMEDRIDSLSQSFPPQYQEAVEPTVYVGTAVNLEEDEANIAWKYYKFPKKKDVEFLPPQLPSDKFKDDPVGPFGQESVTSVTEYVFFLIVTIII”, the “soluble on expression in E. coli” value is on record as “not soluble”. Regarding “MAHHHHHHMQKPIMIVGTSAPRRREIAQRHFGATYDLVYLSPDIDEKQIRDSDPFTLTRAIAQAKMDELRVKVARDAALQDRVAKRPGSVAITFDQVVDYHGEIREKPASEQQAAAFIHAYSNDNLGTVMTTVLYDFGTGKQVSMPNTTLTFYGEIPDETVARVVERGACLRTAGGFVVEDVDMKRCEIKIDPGTEEEVCGFCEKSVRALLEGVQRPWVQSDHCSDGKR”, the “soluble on expression in E. coli” value is on record as “not soluble”.

Consider “MAGAMRKMAVYLGLVEDDGYDGRGFDPDDDFEPELDPEPERDHRRHEPAHQSHGAHQSQRDEEVRVVQPPAQREPMPRAASLAAESSRPARIAPVASITQERASLEKSAPVIMPKVVSEREPYRITTLHPRTYNEARTIGEHFREGTPVIMNLTEMDDTDAKRLVDFAAGLVFGLHGSIERVTQKVFLLSPANVDVTAEDKARIAEGGFFNQSLEHHHHHH”, for which the “soluble on expression in E. coli” value is given as “not soluble”. For “MSLANRKYFGTDGVRGKVGAYPITPDFALKLGWAAGKVLASQGSKMVLIGKDTRISGYMLESALEAGLAAAGLSAAFTGPMPTPAIAYLTRTFRAEAGIVISASHNPYYDNGIKFFSAKGTKLPDEIEEAIEAMLEQPMDCVESAELGKASRINDAAGRYIEFCKGTFPAHLGLEGYKIVVDCANGATYHIAPNVLRELGAEVIEIGTDPNGLNINEKCGATDVTALQAKVVETKADVGLAYDGDGDRIMMVDHLGNKVDGDQILFIIAREALRSGQLKGGVVGTLMSNMSLEIALKMLGVPFLRANVGDRYVLEKMVENDWTLGGENSGHIIIADKNTTGDGIVASLAVLAAMAQHKLSLNELASAVKLFPQVLINVRFAGGENPLESDAVKSVAAEVEKRLEGKGRILLRKSGTEPLIRVMVECQDAELAQQCAEEIAEAVKKEGHHHHHH” the value was “soluble”; for “MNSGYSANIFPSSSSPTLYQSHQLPNPSATMYQATPRDMGKPPVRGKTSPYGFFVKMCYEEHKKKYPNENVQVTEISKKCSEKWKTMVDDEKRRFYELAQKDAERYQAEVSVAAYGGEDAMRKRKRAKKDPHAPKRALSAFFFYSQDKRPEIQAGHPDWKVGQVAQELGKMWKLVPQETKDMYEQKAQADKDRYADEMRNYKAEMQKMSGMDHYDDDNIHHVVHVEDINSQNIS”, “not soluble”; for “MMKKLFLDTHSASGEIKLTDGLLYWFPQFLTPIQADQAFQQMLTHLDWQQKSIRLFGKSVLQPRLIAWYGEKGYRYSGLSLSAQPFPPPLLTLKTQCEQAAQAPFNSVLANLYRDGQDSMGWHQDNEPELGSNPVIASLSLGESRRFLLRHHKDHALQVECELNHGDLLIMAGNTQHFWQHAIPKTRQTKQTRINLTFRNILLEHHHHHH”, “soluble”. As for “DFDFEGNLALFDKAAVFEEIDTYERRSGTRSRGIPNERPTRYRHDENILESEPIVYRRIIVPHNVSKEFCTDSGLVVPSISYELHKKLLSVAEKHGLTLERRLEMTGVCASQMALTLLGGPNRLNPKNVHQRPTVALLCGPHVKGAQGISCGRHLANHDVQVILFLPNFVKMLESITNELSLFSKTQGQQVSSLKDLPTSPVDLVINCLDCPENVFLRDQPWYKAAVAWANQNRAPVLSIDPPVHEVEQGIDAKWSLALGLPLPLGEHAGRIYLCDIGIPQQVFQEVGINYHSPFGCKFVIPLHSA”, the “soluble on expression in E. coli” value is listed as “soluble”. The value for “MSLKPQKILIATDGSEASEKAADFGIETLRFEGAKVYAVYVIDTGSYGSVPVDEKKFKKIERLEEIGHKATSYVEKKATAAGMKVESIVLKGNPAEEIVDFAEEQRVDMIVVGSLGKSGIKRFMLGSVSEKVVRRAKIPVLVVREQKEIKPQKQILIAADCSKATEKAVDFGIEIAKLNGAKVYAVHVIDPIFNDLMEEAWAENAYEQFKKIGREAVSYVEEKANAAGVKVESAVLEGNPAEEIVDFAEEQKVDMIVVGSLGKSGYEQFAIGSVSSKVLRNAKVPVLIVHDIYEFVELFRRCQKSEEVLTPVAGEKEGHHHHHH” was “soluble”; that for “DGFRIAFISDLHYKSLFKEKGLESLVRLLNAQHADVLLMGGDYQEGCQYVPELFAALAKVKTPMGTYGVMGNNDYERCHDEIIREMQRYGMRPLEHQIDTLRRDGAQIILAGVRNPFDLANNGVSPTLSLSPSDFVILLVHTPDYAEDVSVANSDLVLAGHTHGGQVRILGYAPIIPSHYGSRF” was “not soluble”.
